Measured values taken from US20250339531A1, “DUX4 POLYPEPTIDES AND NUCLEIC ACIDS FOR TREATING INFLAMMATORY AND AUTOIMMUNE CONDITIONS” (Fred Hutchinson Cancer Center, priority 2021, published 2025).

System: proteins that co-immunoprecipitated with DUX4-CTD constructs expressed in MB135 myoblasts
Test: LC-MS of proteins co-immunoprecipitated with DUX4-CTD (Table 1) and western validation
Type: binding, human
Parameters: key to 4. mL1dL2 + Dox + IFNG / 4. + IFNG mix / 4. longCTD + Dox + IFNG / 3. + IFNg + Dox longCTD / 3. + Dox longCTD / 3. + IFNG longCTD: peptide-spectrum matches (PSMs) per protein
Settings: for 4. longCTD + Dox + IFNG: LC-MS counts of the listed protein co-immunoprecipitated with DUX4-CTD bait longCTD, experiment 4, Dox + IFNG; for 3. + Dox longCTD: experiment 3, Dox only; for 3. + IFNg + Dox longCTD: experiment 3, IFNg + Dox; for SUM of PSMS: sum over all samples
Procedure, shortened: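 Two independent experiments compared uninduced, doxycycline and doxycycline+IFNG MB135iDUX4-CTD (plus MB135iDUX4mL1dL2) myoblasts. Anti-FLAG pulldowns (3 h, 4 °C) were eluted in LDS buffer for western validation or with FLAG peptide for trypsin digestion and Orbitrap LC-MS; hits needed ≥2 PSMs in both experiments, ranked by total PSMs.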

B1: Q63ZY3 (protein, UniProt Q63ZY3 1-851, looked up)
chain: MAQVLHVPAPFPGTPGPASPPAFPAKDPDPPYSVETPYGYRLDLDFLKYVDDIEKGHTLRRVAVQRRPRLSSLPRGPGSWWTSTESLCSNASGDSRHSAYSYCGRGFYPQYGALETRGGFNPRVERTLLDARRRLEDQAATPTGLGSLTPSAAGSTASLVGVGLPPPTPRSSGLSTPVPPSAGHLAHVREQMAGALRKLRQLEEQVKLIPVLQVKLSVLQEEKRQLTVQLKSQKFLGHPTAGRGRSELCLDLPDPPEDPVALETRSVGTWVRERDLGMPDGEAALAAKVAVLETQLKKALQELQAAQARQADPQPQAWPPPDSPVRVDTVRVVEGPREVEVVASTAAGAPAQRAQSLEPYGTGLRALAMPGRPESPPVFRSQEVVETMCPVPAAATSNVHMVKKISITERSCDGAAGLPEVPAESSSSPPGSEVASLTQPEKSTGRVPTQEPTHREPTRQAASQESEEAGGTGGPPAGVRSIMKRKEEVADPTAHRRSLQFVGVNGGYESSSEDSSTAENISDNDSTENEAPEPRERVPSVAEAPQLRPAGTAAAKTSRQECQLSRESQHIPTAEGASGSNTEEEIRMELSPDLISACLALEKYLDNPNALTERELKVAYTTVLQEWLRLACRSDAHPELVRRHLVTFRAMSARLLDYVVNIADSNGNTALHYSVSHANFPVVQQLLDSGVCKVDKQNRAGYSPIMLTALATLKTQDDIETVLQLFRLGNINAKASQAGQTALMLAVSHGRVDVVKALLACEADVNVQDDDGSTALMCACEHGHKEIAGLLLAVPSCDISLTDRDGSTALMVALDAGQSEIASMLYSRMNIKCSFAPMSDDESPTSSSAEE
modifications: full-length
- 4. longCTD + Dox + IFNG: 4
- 3. + Dox longCTD (bait longCTD): 3
- 3. + IFNg + Dox longCTD (bait longCTD): 3
- SUM of PSMS: 11

B2: Q13263 (protein, UniProt Q13263 1-835, looked up)
chain: MAASAAAASAAAASAASGSPGPGEGSAGGEKRSTAPSAAASASASAAASSPAGGGAEALELLEHCGVCRERLRPEREPRLLPCLHSACSACLGPAAPAAANSSGDGGAAGDGTVVDCPVCKQQCFSKDIVENYFMRDSGSKAATDAQDANQCCTSCEDNAPATSYCVECSEPLCETCVEAHQRVKYTKDHTVRSTGPAKSRDGERTVYCNVHKHEPLVLFCESCDTLTCRDCQLNAHKDHQYQFLEDAVRNQRKLLASLVKRLGDKHATLQKSTKEVRSSIRQVSDVQKRVQVDVKMAILQIMKELNKRGRVLVNDAQKVTEGQQERLERQHWTMTKIQKHQEHILRFASWALESDNNTALLLSKKLIYFQLHRALKMIVDPVEPHGEMKFQWDLNAWTKSAEAFGKIVAERPGTNSTGPAPMAPPRAPGPLSKQGSGSSQPMEVQEGYGFGSGDDPYSSAEPHVSGVKRSRSGEGEVSGLMRKVPRVSLERLDLDLTADSQPPVFKVFPGSTTEDYNLIVIERGAAAAATGQPGTAPAGTPGAPPLAGMAIVKEEETEAAIGAPPTATEGPETKPVLMALAEGPGAEGPRLASPSGSTSSGLEVVAPEGTSAPGGGPGTLDDSATICRVCQKPGDLVMCNQCEFCFHLDCHLPALQDVPGEEWSCSLCHVLPDLKEEDGSLSLDGADSTGVVAKLSPANQRKCERVLLALFCHEPCRPLHQLATDSTFSLDQPGGTLDLTLIRARLQEKLSPPYSSPQEFAQDVGRMFKQFNKLTEDKADVQSIIGLQRFFETRMNEAFGDTKFSAVLVEPPPMSLPGAGLSSQELSGGPGDGP
modifications: full-length
- 4. longCTD + Dox + IFNG: 2
- 3. + IFNg + Dox longCTD (bait longCTD): 1
- SUM of PSMS: 12

B3: Q15233 (protein, UniProt Q15233 1-471, looked up)
chain: MQSNKTFNLEKQNHTPRKHHQHHHQQQHHQQQQQQPPPPPIPANGQQASSQNEGLTIDLKNFRKPGEKTFTQRSRLFVGNLPPDITEEEMRKLFEKYGKAGEVFIHKDKGFGFIRLETRTLAEIAKVELDNMPLRGKQLRVRFACHSASLTVRNLPQYVSNELLEEAFSVFGQVERAVVIVDDRGRPSGKGIVEFSGKPAARKALDRCSEGSFLLTTFPRPVTVEPMDQLDDEEGLPEKLVIKNQQFHKEREQPPRFAQPGSFEYEYAMRWKALIEMEKQQQDQVDRNIKEAREKLEMEMEAARHEHQVMLMRQDLMRRQEELRRMEELHNQEVQKRKQLELRQEEERRRREEEMRRQQEEMMRRQQEGFKGTFPDAREQEIRMGQMAMGGAMGINNRGAMPPAPVPAGTPAPPGPATMMPDGTLGLTPPTTERFGQAATMEGIGAIGGTPPAFNRAAPGAEFAPNKRRRY
modifications: full-length
- 3. + Dox longCTD (bait longCTD): 1
- 3. + IFNg + Dox longCTD (bait longCTD): 8
- SUM of PSMS: 10

B4: Q8NC51 (protein, UniProt Q8NC51 1-408, looked up)
chain: MPGHLQEGFGCVVTNRFDQLFDDESDPFEVLKAAENKKKEAGGGGVGGPGAKSAAQAAAQTNSNAAGKQLRKESQKDRKNPLPPSVGVVDKKEETQPPVALKKEGIRRVGRRPDQQLQGEGKIIDRRPERRPPRERRFEKPLEEKGEGGEFSVDRPIIDRPIRGRGGLGRGRGGRGRGMGRGDGFDSRGKREFDRHSGSDRSSFSHYSGLKHEDKRGGSGSHNWGTVKDELTESPKYIQKQISYNYSDLDQSNVTEETPEGEEHHPVADTENKENEVEEVKEEGPKEMTLDEWKAIQNKDRAKVEFNIRKPNEGADGQWKKGFVLHKSKSEEAHAEDSVMDHHFRKPANDITSQLEINFGDLGRPGRGGRGGRGGRGRGGRPNRGSRTDKSSASAPDVDDPEAFPALA
modifications: full-length
- 4. longCTD + Dox + IFNG: 1
- 3. + Dox longCTD (bait longCTD): 2
- 3. + IFNg + Dox longCTD (bait longCTD): 3
- SUM of PSMS: 6

B5: CDK4 (protein)
chain: ATSRYEPVAEIGVGAYGTVYKARDPHSGHFVALKSVRVPNGGGGGGGLPISTVREVALLRRLEAFEHPNVVRLMDVCATSRTDREIKVTLVFEHVDQDLRTYLDKAPPPGLPAETIKDLMRQFLRGLDFLHANCIVHRDLKPENILVTSGGTVKLADFGLARIYSYQMALTPVVVTLWYRAPEVLLQSTYATPVDMWSVGCIFAEMFRRKPLFCGNSEADQLGKIFDLIGLPPEDDWPRDVSLPRGAFPPRGPRPVQSVVPEMEESGAQLLLEMLTFNPHKRISAFRALQHSYLHKDEGNPE
- 4. mL1dL2 + Dox + IFNG (LC-MS value per protein co-immunoprecipitated with DUX4-CTD construct mL1dL2 in MB135 myoblasts, + Dox + IFNG, kind of count not given): 3

B6: P13489 (protein, UniProt P13489 1-461, looked up)
chain: MSLDIQSLDIQCEELSDARWAELLPLLQQCQVVRLDDCGLTEARCKDISSALRVNPALAELNLRSNELGDVGVHCVLQGLQTPSCKIQKLSLQNCCLTGAGCGVLSSTLRTLPTLQELHLSDNLLGDAGLQLLCEGLLDPQCRLEKLQLEYCSLSAASCEPLASVLRAKPDFKELTVSNNDINEAGVRVLCQGLKDSPCQLEALKLESCGVTSDNCRDLCGIVASKASLRELALGSNKLGDVGMAELCPGLLHPSSRLRTLWIWECGITAKGCGDLCRVLRAKESLKELSLAGNELGDEGARLLCETLLEPGCQLESLWVKSCSFTAACCSHFSSVLAQNRFLLELQISNNRLEDAGVRELCQGLGQPGSVLRVLWLADCDVSDSSCSSLAATLLANHSLRELDLSNNCLGDAGILQLVESVRQPGCLLEQLVLYDIYWSEEMEDRLQALEKDKPSLRVIS
modifications: full-length
- 4. longCTD + Dox + IFNG: 4
- 3. + IFNG longCTD (bait longCTD, experiment 3, IFNG only, no doxycycline (bait at background level)): 1
- SUM of PSMS: 15

B7: Q9UN86 (protein, UniProt Q9UN86 1-482, looked up)
chain: MVMEKPSPLLVGREFVRQYYTLLNKAPEYLHRFYGRNSSYVHGGVDASGKPQEAVYGQNDIHHKVLSLNFSECHTKIRHVDAHATLSDGVVVQVMGLLSNSGQPERKFMQTFVLAPEGSVPNKFYVHNDMFRYEDEVFGDSEPELDEESEDEVEEEQEERQPSPEPVQENANSGYYEAHPVTNGIEEPLEESSHEPEPEPESETKTEELKPQVEEKNLEELEEKSTTPPPAEPVSLPQEPPKAFSWASVTSKNLPPSGTVSSSGIPPHVKAPVSQPRVEAKPEVQSQPPRVREQRPRERPGFPPRGPRPGRGDMEQNDSDNRRIIRYPDSHQLFVGNLPHDIDENELKEFFMSFGNVVELRINTKGVGGKLPNFGFVVFDDSEPVQRILIAKPIMFRGEVRLNVEEKKTRAARERETRGGGDDRRDIRRNDRGPGGPRGIVGGGMMRDRDGRGPPPRGGMAQKLGSGRGTGQMEGRFTGQRR
modifications: full-length
- 4. longCTD + Dox + IFNG: 1
- 3. + Dox longCTD (bait longCTD): 1
- 3. + IFNg + Dox longCTD (bait longCTD): 3
- SUM of PSMS: 6

B8: P26196 (protein, UniProt P26196 1-483, looked up)
chain: MSTARTENPVIMGLSSQNGQLRGPVKPTGGPGGGGTQTQQQMNQLKNTNTINNGTQQQAQSMTTTIKPGDDWKKTLKLPPKDLRIKTSDVTSTKGNEFEDYCLKRELLMGIFEMGWEKPSPIQEESIPIALSGRDILARAKNGTGKSGAYLIPLLERLDLKKDNIQAMVIVPTRELALQVSQICIQVSKHMGGAKVMATTGGTNLRDDIMRLDDTVHVVIATPGRILDLIKKGVAKVDHVQMIVLDEADKLLSQDFVQIMEDIILTLPKNRQILLYSATFPLSVQKFMNSHLQKPYEINLMEELTLKGVTQYYAYVTERQKVHCLNTLFSRLQINQSIIFCNSSQRVELLAKKISQLGYSCFYIHAKMRQEHRNRVFHDFRNGLCRNLVCTDLFTRGIDIQAVNVVINFDFPKLAETYLHRIGRSGRFGHLGLAINLITYDDRFNLKSIEEQLGTEIKPIPSNIDKSLYVAEYHSEPVEDEKP
modifications: full-length
- 4. longCTD + Dox + IFNG: 1
- 3. + Dox longCTD (bait longCTD): 2
- 3. + IFNg + Dox longCTD (bait longCTD): 3
- SUM of PSMS: 6

B9: P55209 (protein, UniProt P55209 1-391, looked up)
chain: MADIDNKEQSELDQDLDDVEEVEEEETGEETKLKARQLTVQMMQNPQILAALQERLDGLVETPTGYIESLPRVVKRRVNALKNLQVKCAQIEAKFYEEVHDLERKYAVLYQPLFDKRFEIINAIYEPTEEECEWKPDEEDEISEELKEKAKIEDEKKDEEKEDPKGIPEFWLTVFKNVDLLSDMVQEHDEPILKHLKDIKVKFSDAGQPMSFVLEFHFEPNEYFTNEVLTKTYRMRSEPDDSDPFSFDGPEIMGCTGCQIDWKKGKNVTLKTIKKKQKHKGRGTVRTVTKTVSNDSFFNFFAPPEVPESGDLDDDAEAILAADFEIGHFLRERIIPRSVLYFTGEAIEDDDDDYDEEGEEADEEGEEEGDEENDPDYDPKKDQNPAECKQQ
modifications: full-length
- 4. longCTD + Dox + IFNG: 3
- 3. + IFNg + Dox longCTD (bait longCTD): 5
- SUM of PSMS: 10
